Changes are numbered by the printed parent chain. Names and notes keep the numbering of the source.
B1: mut-MGLL 9-297, L169S, L176S: truncated human MGLL 9-297 with L169S, L176S (protein, UniProt Q99685 9-297, looked up, variant L169S L176S)
chain: RTPQSIPYQDLPHLVNADGQYLFCRYWKPTGTPKALIFVSHGAGEHSGRYEELARMLMGLDLLVFAHDHVGHGQSEGERMVVSDFHVFVRDVLQHVDSMQKDYPGLPVFLLGHSMGGAIAILTAAERPGHFAGMVLISPLVLANPESATTFKVLAAKVLNSVLPNLSSGPIDSSVLSRNKTEVDIYNSDPLICRAGLKVCFGIQLLNAVSRVERALPKLTVPFLLLQGSADRLCDSKGAYLLMELAKSQDKTLKIYEGAYHVLHKELPEVTNSVFHEINMWVSQRTATA
B2: mut-MGLL 1-303, L171Q: human MGLL 1-303 with cap-domain mutation L171Q (protein, UniProt Q99685 1-303, looked up, variant L171Q)
Monoglyceride lipase: MPEESSPRRTPQSIPYQDLPHLVNADGQYLFCRYWKPTGTPKALIFVSHGAGEHSGRYEELARMLMGLDLLVFAHDHVGHGQSEGERMVVSDFHVFVRDVLQHVDSMQKDYPGLPVFLLGHSMGGAIAILTAAERPGHFAGMVLISPLVLANPESATTFKVLAAKVLNLVQPNLSLGPIDSSVLSRNKTEVDIYNSDPLICRAGLKVCFGIQLLNAVSRVERALPKLTVPFLLLQGSADRLCDSKGAYLLMELAKSQDKTLKIYEGAYHVLHKELPEVTNSVFHEINMWVSQRTATAGTASPP
B3: mut-MGLL 1-303, L169S, L176S, K36A, K226A: human MGLL 1-303 with L169S, L176S and surface mutations K36A, K226A (protein)
chain: B2 Monoglyceride lipase with K36A, L169S, Q171L, L176S, K226A
B4: mut-MGLL.1-303, L169S, L176S, K165A: human MGLL 1-303 with L169S, L176S and surface mutation K165A (protein)
chain: B2 Monoglyceride lipase with K165A, L169S, Q171L, L176S
B5: mut-MGLL 1-303, L167Q, L171Q: human MGLL 1-303 with cap-domain mutations L167Q, L171Q (protein, UniProt Q99685 1-303, looked up, variant L167Q L171Q)
Monoglyceride lipase: B2 Monoglyceride lipase with L167Q
B6: mut-MGLL.1-303, L169S, L176S, K160A: human MGLL 1-303 with L169S, L176S and surface mutation K160A (protein)
chain: B2 Monoglyceride lipase with K160A, L169S, Q171L, L176S
B7: mut-MGLL 1-303, L171Q, L174Q: human MGLL 1-303 with cap-domain mutations L171Q, L174Q (protein, UniProt Q99685 1-303, looked up, variant L171Q L174Q)
Monoglyceride lipase: B2 Monoglyceride lipase with L174Q
B8: mut-MGLL. 1-303, L167Q, L174Q: human MGLL 1-303 with cap-domain mutations L167Q, L174Q (protein, UniProt Q99685 1-303, looked up, variant L167Q L174Q)
Monoglyceride lipase: B2 Monoglyceride lipase with L167Q, Q171L, L174Q
B9: mut-MGLL 1-303, L169S, L176S, K226A: human MGLL 1-303 with L169S, L176S and surface mutation K226A (protein)
chain: B2 Monoglyceride lipase with L169S, Q171L, L176S, K226A
B10: mut-MGLL 9-303, L169S, L176S: N-terminally truncated human MGLL 9-303 with L169S, L176S (protein, UniProt Q99685 9-303, looked up, variant L169S L176S)
chain: RTPQSIPYQDLPHLVNADGQYLFCRYWKPTGTPKALIFVSHGAGEHSGRYEELARMLMGLDLLVFAHDHVGHGQSEGERMVVSDFHVFVRDVLQHVDSMQKDYPGLPVFLLGHSMGGAIAILTAAERPGHFAGMVLISPLVLANPESATTFKVLAAKVLNSVLPNLSSGPIDSSVLSRNKTEVDIYNSDPLICRAGLKVCFGIQLLNAVSRVERALPKLTVPFLLLQGSADRLCDSKGAYLLMELAKSQDKTLKIYEGAYHVLHKELPEVTNSVFHEINMWVSQRTATAGTASPP
B11: mut-MGLL 1-303, L169S, L176S, K36A: human MGLL 1-303 with cap mutations L169S, L176S and surface mutation K36A (protein)
chain: GMPEESSPRRTPQSIPYQDLPHLVNADGQYLFCRYWAPTGTPKALIFVSHGAGEHSGRYEELARMLMGLDLLVFAHDHVGHGQSEGERMVVSDFHVFVRDVLQHVDSMQKDYPGLPVFLLGHSMGGAIAILTAAERPGHFAGMVLISPLVLANPESATTFKVLAAKVLNSVLPNLSSGPIDSSVLSRNKTEVDIYNSDPLICRAGLKVCFGIQLLNAVSRVERALPKLTVPFLLLQGSADRLCDSKGAYLLMELAKSQDKTLKIYEGAYHVLHKELPEVTNSVFHEINMWVSQRTATAGTASPP

test system: MGLL; assay: Michaelis-Menten kinetics, hydrolysis of 4-methylcoumarin butyrate (4MC-B); type: biochemical, human; conditions: substrate 4MC-B; 4-5 nM MGLL, 20 mM Pipes pH 7, 150 mM NaCl, 37° C.; average of 2 or 4 assays
Excerpt: A small fluorescent substrate, 4-methyl coumarin butyrate (4MC-B) was used to compare the activity of the engineered mutants to the activity of wt-MGLL (hMGLL 1-303) (SEQ ID NO: 3). The catalytic efficiency (kcat/KM) for the hydrolysis of the 4MC-B was similar for wt-MGLL (hMGLL 1-303) (SEQ ID NO: 3) and all MGLL mutants tested (Table 2). A larger more aliphatic fluorescent substrate, Coumarin Arachidonate (C-A), structurally more closely related to the MGLL natural substrate, 2-AG, was used to compare the activity of wt-MGLL (hMGLL 1-303) (SEQ ID NO: 3) to TEV protease cleaved mut-MGLL (hMGLL 1-303 L169S, L176S) (SEQ ID NO: 5).
The Michaelis-Menten parameters for the hydrolysis of 4-methylcoumarin butyrate (4MC-B) and coumarin arachidonate (C-A) substrate were determined using 4-5 nM of MGLL in 20 mM Pipes pH 7 and 150 mM NaCl at 37° C. The change in fluorescence due to substrate hydrolysis was monitored using excitation/emission wavelengths of 335/440 in a Safire II instrument from Tecan. The hyperbolic rates versus substrate concentration curves for the hydrolysis of 4MC-B were fit to the Michaelis-Menten equation using Excel.

In order of rising Kcat:
1. B1  0.433 s⁻¹
2. B4  0.45 s⁻¹
3. B10  0.45 s⁻¹
4. B3  0.5 s⁻¹
5. B6  0.5 s⁻¹
6. B9  0.633 s⁻¹
7. B7  0.783 s⁻¹
8. B2  0.85 s⁻¹
9. B11  0.85 s⁻¹
10. B5  0.983 s⁻¹
11. B8  1.17 s⁻¹

In order of rising Km:
1. B5  84 µM
2. B8  84 µM
3. B10  88 µM
4. B7  89 µM
5. B6  90 µM
6. B2  105 µM
7. B9  110 µM
8. B3  123 µM
9. B11  124 µM
10. B1  126 µM
11. B4  137 µM

Source: patent US8067220B2, “Alternative crystal form of monoacylglycerol lipase (MGLL)” (Janssen Pharmaceutica N.V., priority 2008, dated 2011)
